The values that follow are results of earlier work, collected in patent publication US20070264667A1, “Method and system for assaying transferase activity” (priority 2003, published 2007).

pKi: −log10 of the molar value.

Series [1] deals with IRK (Homo sapiens, UniProt P06213). The settings on record: competitive inhibitor of IRK; ref (20); read-out: reported Km.
Series [2] concerns the target EGF receptor kinase (Homo sapiens, UniProt P00533). To be noted: ref (22).

EGF receptor kinase, sequence (P00533 25-1210): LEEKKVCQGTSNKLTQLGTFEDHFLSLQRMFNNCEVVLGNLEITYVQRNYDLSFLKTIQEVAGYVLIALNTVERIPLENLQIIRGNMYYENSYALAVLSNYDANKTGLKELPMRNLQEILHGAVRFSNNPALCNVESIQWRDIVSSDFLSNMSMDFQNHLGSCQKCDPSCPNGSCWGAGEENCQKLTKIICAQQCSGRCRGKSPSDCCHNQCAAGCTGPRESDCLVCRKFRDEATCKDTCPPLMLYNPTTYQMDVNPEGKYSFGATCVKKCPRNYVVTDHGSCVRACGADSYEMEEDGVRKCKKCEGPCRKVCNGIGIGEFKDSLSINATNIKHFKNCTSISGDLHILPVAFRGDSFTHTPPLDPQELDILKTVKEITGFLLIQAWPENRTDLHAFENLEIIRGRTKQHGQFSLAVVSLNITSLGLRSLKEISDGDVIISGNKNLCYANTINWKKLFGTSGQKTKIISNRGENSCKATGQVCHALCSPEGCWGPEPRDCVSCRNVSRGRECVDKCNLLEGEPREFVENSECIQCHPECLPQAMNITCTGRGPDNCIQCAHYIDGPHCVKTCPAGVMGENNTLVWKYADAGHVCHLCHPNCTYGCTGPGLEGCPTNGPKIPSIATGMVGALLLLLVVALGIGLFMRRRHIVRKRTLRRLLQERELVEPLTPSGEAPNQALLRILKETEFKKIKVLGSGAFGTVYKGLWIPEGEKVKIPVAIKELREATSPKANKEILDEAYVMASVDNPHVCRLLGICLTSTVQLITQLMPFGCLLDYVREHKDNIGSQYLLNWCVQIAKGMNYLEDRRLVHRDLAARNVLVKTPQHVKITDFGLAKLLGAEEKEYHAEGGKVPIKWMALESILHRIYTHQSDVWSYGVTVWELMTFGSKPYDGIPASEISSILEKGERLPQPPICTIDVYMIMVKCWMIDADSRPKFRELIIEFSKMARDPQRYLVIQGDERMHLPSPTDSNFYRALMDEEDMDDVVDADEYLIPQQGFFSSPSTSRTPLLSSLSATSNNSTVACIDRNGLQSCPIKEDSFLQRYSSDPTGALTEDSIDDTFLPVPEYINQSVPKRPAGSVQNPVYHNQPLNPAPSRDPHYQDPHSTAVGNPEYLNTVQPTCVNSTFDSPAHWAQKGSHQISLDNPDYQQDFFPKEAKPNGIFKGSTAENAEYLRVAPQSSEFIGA

On to “1RS727: peptide inhibitor of IRK with the sequence KKKLPATGDYMNMSPVGD”, for which the Km (commonly the substrate concentration at which the rate is half of its maximum) in series [1] was about 24 µM.
Take `O=C(O)c1cc(N(Cc2ccccc2O)Cc2cc(O)ccc2O)ccc1O` [Lavendustin A]: the pKi (usually the negative decadic logarithm of the Ki, by convention in mol/L) in series [2] is 7.96.
